Results on two molecules are retold here after patent US20230242675A1 (SHANGHAI EPIMAB BIOTHERAPEUTICS, published 2023).

The target of assay [1] is T1, human PD-L1/His fusion protein (human, UniProt Q9NZQ7 19-239). The assay is described as follows: BLI Octet RED96, antibody on AHC sensor, single conc. PD-L1/His; test group 1. The method, then:
(§1) Briefly, antibodies were characterized for affinities and binding kinetics by Octet®RED96 biolayer interferometry (Pall ForteBio LLC). Antibodies were captured by Anti-hIgG Fc Capture (AHC) Biosensors (Pall) at a concentration of 100 nM for 30 seconds. Sensors were then dipped into running buffer (1×pH 7.2 PBS, 0.05% Tween 20, 0.1% BSA) for 60 seconds to check baseline. Binding was measured by dipping sensors into a single concentration of recombinant human PD-L1/His fusion protein (Novoprotein). Dissociation was followed by dipping sensors into running buffer for 1200 seconds. The association and dissociation curves were fitted to a 1:1 Langmuir binding model using ForteBio Data Analysis software (Pall). […] The off-rate ratio serves as a data normalization. Accordingly, in each test group, the off-rate ratios of the humanized antibodies can be compared with that of the chimeric antibody, and the off-rate ratios of each of the humanized antibodies can be compared to one another within all test groups.
A general note: Biolayer interferometry detects binding as a change in optical thickness at a sensor tip.

Assay [2] concerns the target T1, human PD-L1/His fusion protein. The assay is described as follows: BLI off-rate; test group 3 (reference itself). The method, then: as §1
The target in assay [3] is human PD-L1/Fc Fusion Protein (human). Kind of assay: RBA ELISA: coated PD-L1/Fc, competitor biotinylated human PD-1. The method, then:
ELISA plates were coated with 100 μl of 1 μg/ml of human PD-L1/Fc in PBS and incubated overnight at 4° C. Plates were washed four times in washing buffer (PBS containing 0.05% Tween 20) and blocked for 1 hour at 37° C. with 200 μl per well of blocking buffer (1% BSA in PBS containing 0.05% Tween 20). […] A human IgG was included as negative control. The signal was developed by adding streptavidin-HRP (Cat. No. S2468, Sigma) (100 μl/well at 1:5000 dilution) and incubating for 40 minutes at 37° C., followed by washing four times in washing buffer. Then, 100 μl of TMB solution were added per well. Following color development, the reaction was stopped with 1 N HCl, and absorbance at 450 nm was measured. The data were processed by GraphPad software, and IC50 values were calculated. […] The signal reduction induced by antibody samples was normalized to inhibition percentage, where the negative control was 0% inhibition, and the absolute value of signal reduction of each antibody divided by the signal of the negative control equals the percent inhibition by the antibody.
(In general: An ELISA detects its analyte on a solid surface through an enzyme-linked reagent.)

Assay [4] concerns the target T1, human PD-L1/His fusion protein. Kind of assay: BLI off-rate; test group 2 (reference itself). The method, then:
as §1

Assay [5] has as its target T2, cynomolgus (cyno) PD-L1/His fusion protein (cynomolgus, UniProt G7PSE7 19-239).
T2 construct: also called cynomolgus PD-L1; not shown: His tag
Kind of assay: ELISA, coated cyno PD-L1 protein. The method, then:
(§2) The ability of an antibody to bind human or cynomolgus (cyno) PD-L1 (binding activity) was determined by ELISA. ELISA plates were incubated overnight at 4° C. with 50 μl of the human or cyno PD-L1 protein described above diluted in PBS buffer, pH 7.4, at 1 μg/ml. Plates were washed four times in washing buffer (PBS containing 0.05% Tween 20) and blocked for 1 hour at 37° C. with 200 μl per well of blocking buffer (1% BSA in PBS containing 0.05% Tween 20). After blocking buffer was removed, diluted purified antibodies (200 nM and 1:5 serial dilutions to provide 7 concentrations of each antibody) were added to the wells at 100 μl per well and incubated at 37° C. for 1 hour. The wells were washed four times with washing buffer, and anti-human IgG (Fc-specific) HRP-conjugated antibody (Sigma), diluted 1:10,000, was added to the wells at 100 μl per well. The plates were incubated for 1 hour at 37° C. and washed four times in washing buffer. 100 μl of tetramethylbenzidine (TMB) chromogenic solution were added per well. Following color development, the reaction was stopped with 1 N HCl, and absorbance at 450 nm was measured on a VARIOSKAN™ LUX multimode microplate reader (ThermoFisher Scientific, Vataa, Finland). The data were processed by GraphPad software, and EC50 values were calculated. The EC50 for binding activity according to this ELSA is the concentration at which an antibody induces a response halfway between the baseline and maximum and indicates the binding ability of the antibody.

Assay [6] concerns the target T1, human PD-L1/His fusion protein. The assay is described as follows: ELISA, coated human PD-L1 protein, anti-human Fc detection. The method, then:
as §2

Assay [7] shares this target. The assay is described as follows: BLI off-rate; test group 4 (reference itself). The method, then:
as §1

Assay [8] shares this target. Kind of assay: BLI Octet RED96, antibody on AHC sensor, single conc. PD-L1/His; test group 3. The method, then:
as §1

In assay [9] the target is T3, human PD-L1 on the cell surface (CHO-K1 cells stably expressing human PD-L1) (human, UniProt Q9NZQ7 19-290).
T3 construct: whole, on cells; Also used here for PD-L1 on the monocyte-derived dendritic cells of the MLR assay (functional rows); also called CHO-K1/PD-L1; CHOK1-PD-L1
Kind of assay: FACS on CHO-K1/hPD-L1 cells. The method, then:
The ability of the purified antibodies to bind to cell membrane human PD-L1 was determined by FACS analysis. CHO-K1 cells stably expressing human PD-L1 (CHO-K1/hPD-L1 cells) were resuspended in PBS containing 2% FBS (FACS buffer) and seeded at 1×10⁵ cells/well into 96-well round-bottomed plates (Corning; Cat. No. 3799). […] The assay plate was then read on a flow cytometer. The data were processed by GraphPad software, and EC50 values were calculated. The EC50 for binding activity according to this FACS analysis is the concentration at which of an antibody induces a response halfway between the baseline and maximum and reflects the binding ability of the antibody.

Assay [10] addresses T1, human PD-L1/His fusion protein. The assay is described as follows: BLI Octet RED96, antibody on AHC sensor, single conc. PD-L1/His; test group 2. The method, then: as §1
Assay [11] deals with T2, cynomolgus (cyno) PD-L1/His fusion …. Kind of assay: BLI Octet RED96, cyno PD-L1.
In assay [12] the target is T1, human PD-L1/His fusion protein. The assay is described as follows: BLI Octet RED96, antibody on AHC sensor, PD-L1/His in solution. The method, then:
Binding of antibodies to PD-L1 was also assessed using biolayer interferometry (BLI) using an Octet® RED96 sensor device (Pall ForteBio LLC). Antibodies were captured by anti-hIgG Fc capture (AHC) Biosensors (Pall) at a concentration of 100 nM for 30 seconds. Sensors were then dipped into running buffer (1×pH7.2 PBS, 0.05% Tween 20, 0.1% BSA) for 60 seconds to check the baseline. Binding was measured by dipping sensors into a series of diluted concentrations of recombinant human PD-L1/His fusion protein. Dissociation was followed by dipping sensors into running buffer for 1200 seconds. The association and dissociation curves were fitted to a 1:1 Langmuir binding model using ForteBio Data Analysis software (Pall). The equilibrium dissociation constant KD (molarity) of the reaction between antibodies and related target proteins was then calculated from the kinetic rate constants using the formula KD=koff/kon.

Assay [13] shares this target. The assay is described as follows: BLI Octet RED96, antibody on AHC sensor, single conc. PD-L1/His; test group 4. The method, then:
as §1

For assay [14] the target is unchanged. Kind of assay: BLI off-rate; test group 1 (reference itself). The method, then: as §1

Chain of human PD-L1/Fc Fusion Protein (human) (chain, as listed by the source limits assumed): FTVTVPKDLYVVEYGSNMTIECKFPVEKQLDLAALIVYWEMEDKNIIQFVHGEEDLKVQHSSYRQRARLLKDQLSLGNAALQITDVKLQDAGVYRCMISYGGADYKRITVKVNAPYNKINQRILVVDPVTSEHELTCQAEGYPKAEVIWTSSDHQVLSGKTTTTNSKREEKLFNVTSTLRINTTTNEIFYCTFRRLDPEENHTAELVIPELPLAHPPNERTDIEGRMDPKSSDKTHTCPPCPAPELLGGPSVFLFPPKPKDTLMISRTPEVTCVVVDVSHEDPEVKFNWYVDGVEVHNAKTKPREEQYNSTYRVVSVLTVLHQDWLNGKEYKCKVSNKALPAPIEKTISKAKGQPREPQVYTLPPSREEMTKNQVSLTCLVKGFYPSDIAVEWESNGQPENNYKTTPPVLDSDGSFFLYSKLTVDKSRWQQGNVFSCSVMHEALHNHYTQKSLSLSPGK
T1 sequence (Q9NZQ7 19-239 limits assumed): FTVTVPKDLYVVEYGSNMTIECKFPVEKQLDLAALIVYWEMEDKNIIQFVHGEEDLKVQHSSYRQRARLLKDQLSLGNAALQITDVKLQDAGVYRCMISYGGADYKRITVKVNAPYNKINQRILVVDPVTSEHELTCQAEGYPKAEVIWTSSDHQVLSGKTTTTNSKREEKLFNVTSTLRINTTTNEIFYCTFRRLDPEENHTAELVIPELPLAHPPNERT
T2 sequence (G7PSE7 entry or part of it): as the sequence (Q9NZQ7 19-239 limits assumed) above, with A33T, A34S, S62N, R68Q, Q82R, F173L, T185A, T192I, H215L counted along it
T3 sequence (Q9NZQ7 19-290): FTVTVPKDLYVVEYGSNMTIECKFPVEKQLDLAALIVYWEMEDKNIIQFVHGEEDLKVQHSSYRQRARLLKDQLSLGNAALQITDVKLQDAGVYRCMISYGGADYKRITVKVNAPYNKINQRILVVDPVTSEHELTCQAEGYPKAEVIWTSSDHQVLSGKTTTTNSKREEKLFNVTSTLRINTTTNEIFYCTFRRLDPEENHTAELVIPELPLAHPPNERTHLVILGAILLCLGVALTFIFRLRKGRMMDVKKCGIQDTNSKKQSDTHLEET

B1: EM0005-mAb90c (antibody, human IgG1, kappa, V domains shown)
VH: QVQLKQSGAELVRPGSSVKMSCKTSGYTFTSHSINWVKQRPGQGLEWIGYMYIGNGYTEYNEKFKGKATLTSDTSSTTAYMQLSSLTSEDSAIYFCAKITPVVAPYVMDYWGQGTSVTVSS
VL: DIVMTQTHKFMSTSVGDRVSITCKASQDVGTAVAWYQQKPGQSPKLLIYWASTRHTGVPDRFTGSGSGTDFTLTISNVQSEDLADYFCQQYSSYPYTFGGGTKLELKR
notes: Chimeric full-length IgG1; also called EM0005-90c
In general, koff refers to the rate constant with which the complex falls apart. A high value points to fast dissociation. Usually IC50 stands for the concentration at which inhibition is half-maximal. A low value points to inhibition by little substance. As a reminder, the EC50 is the concentration needed to bring the measured effect to its halfway point. As a reminder, the Kd is the equilibrium constant for the complex coming apart. High values mean lower affinity, low ones higher affinity. Turning to B1, the koff turned out to be 0.000253 s⁻¹ in assay [1], 0.000382 s⁻¹ in [8], 0.000342 s⁻¹ in assay [10] and 0.00225 s⁻¹ in assay [13]. Moreover, the “Off-Rate Ratio to that of EM0005-90c” value in assay [2], in assay [4], in assay [7] and in assay [14] was 100% each time. Moreover, in assay [3], the IC50 was determined as 1050 pM. The “Inhibition (percent)” value in assay [3] stood at 94.4%. Besides, the EC50 in assay [5] stood at 120 pM; in assay [6], 150 pM; in [9] it was 210 pM. The Kd was found to be 837 pM in assay [11] and 681 pM in assay [12].

B2: EM0005-mAb87c (antibody, human IgG1, kappa, V domains shown)
VH: EVQLQQSGPELVKPGASVKISCKASGYSFTDYYINWVKQSPEKSLEWIGETIPNTGGTTYNQKFKAKATLTVDKSSSTAYMQLKSLTSEDSAVYYCARYQSGSPFAYWGQGTPVTVSS
VL: DIVMTQSQKFMSTTVGDRVSITCKASQNVGTAVAWYQQKPGQSPKLLIYSASNRYTGVPDRFTGSGSGTDFTLTISNMQSEDLADYFCQQHYSTPYTFGGGTKLEIKR
notes: Chimeric full-length IgG1; also called EM0005-87c
For the molecule B2, the koff in [1] stood at 0.00147 s⁻¹; in assay [8], 0.00135 s⁻¹; in assay [10], 0.00104 s⁻¹; in assay [13], 0.000897 s⁻¹. Moreover, the “Off-Rate Ratio to that of EM0005-87c” value in assay [2], in assay [4], in assay [7] and in assay [14] was 100% throughout. The molecule also yielded an IC50 in assay [3] of 940 pM. Also, the “Inhibition (percent)” value in assay [3] was determined as 93.9%. Also, the EC50 is 60 pM in [5], 80 pM in [6] and 420 pM in [9]. The Kd in assay [11] amounted to 493 pM; in [12], 981 pM.
